Results from the supplement of paper PMC10567573.

B1: DCAF4 (parent)
chain: TTKCVRQYEGHVNEYAYLPLHVHE

Variants of: B1
Assay: protein stability index of a GFP-peptide fusion (GPS, HEK-293T) (PSI 1-6); higher = more stable
Conditions: c terminus: a fixed tail appended
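Further: lentivirally expressed fusions sorted by FACS into six bins by GFP to DsRed ratio, PSI derived from sequencing read proportions per bin multiplied by bin number.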

Protein stability index, by site and new letter:
E14: L 1.63, N 2.47, D 2.79, A 1.85, R 2.34, G 2.29, V 1.44, P 2.57, F 3.16, S 2.05, C 2.03, Y 1.64, K 2.64, T 2.23
L18: D 3.8, H 3.09, E 3.58, G 3.09, F 2.51, M 2.82, C 2.74, Q 3.16, S 2.98, I 2.26, A 2.92, P 2.75
L20: K 2.8, F 2.35, V 2.44, A 2.78, M 2.63, Q 3.06, G 2.41, T 2.85, I 2.74, C 2.67, W 2.33, R 3.21, E 3.53, Y 2.32, P 3.31
G10: L 2.11, V 2.14, N 2.11, Y 2.29, A 2.37, E 3.3, R 2.3, F 1.66, T 2.57, C 2.61, P 2.18, M 2.06
K3: G 2.89, F 1.55, E 3.58, C 2.62, N 2.98, V 2.02, H 2.71, A 3.11, W 1.82, L 2.6, D 3.56, S 2.71, Q 3.25, R 2.12, Y 1.6, I 1.73, M 2.07, P 3.58
N13: V 2.23, M 1.88, A 2.64, T 2.64, F 2.02, S 2.78, D 2.35, C 2.35, I 1.66, G 3.04, W 1.87, R 2.31, Y 2.09
V5: C 2, F 2.24, G 2.31, Q 2.55, T 2.69, H 2.19, I 2.17, S 1.82, K 1.99, R 1.76, M 2.18, W 2.46, N 2.27, Y 1.82, E 3.29
Q7: F 1.87, W 1.88, R 2.28, M 2.19, L 2.28, E 2.96, S 2.75, T 2.97, C 2.15, D 2.8, A 2.52, H 2.64
T1: L 2.99, G 2.99, V 2.22, C 1.9, Y 1.69, K 2.84, Q 2.74, S 3.81, P 2.48, M 2.19, F 1.74, A 2.67, H 2.65, E 3.14, R 2.22, I 2
P19: H 1.96, M 2.47, T 1.53, Q 1.75, C 1.84, N 2.33, K 1.87, W 2.57, I 2.46, E 1.82, L 2.16, Y 2.67, V 2.22, R 1.91, S 1.46, F 1.71
V12: W 2.07, L 2.76, G 3.13, N 2.98, F 2.11, C 2.48, H 2.71, M 2.86, Q 2.58, R 2.6, I 2.52, E 3.35, A 3.03, S 2.78
V22: F 2.01, T 3.12, N 3.19, S 3.24, K 3.27, Q 3.3, E 3.65, G 2.13, C 2.54, M 3.06, R 2.58, I 2.42, Y 2.43, W 2.61
H23: I 3.56, W 1.9, S 2.73, C 2.52, R 2.48, M 2.12, L 2.51, K 3.44, D 3.45, Q 3.38, G 2.76, A 2.78, P 3.32, Y 2.24, T 2.37, F 1.46, E 3.21
A16: T 2.82, R 2.6, G 2.13, Q 3.01, M 2.34, W 1.84, E 3.31, N 2.6, S 2.45, K 2.71, Y 1.87, C 2.44, I 2.2, D 2.54, V 2.2
C4: Y 2.48, A 3.14, K 2.83, P 3.1, N 3.48, G 2.67, D 3.76, L 2.86, S 3.25, I 3.13, F 2.25, W 2.29, H 3.19, V 3.08, E 3.59
R6: Y 2.4, T 2.49, H 2.52, D 2.87, Q 3.31, V 2.1, F 1.8, S 2.01, N 2.95, L 2.18, I 2.11, P 2.26, W 1.73, M 2.38, K 2.63, C 2.53, G 2.58
H11: T 3.25, W 1.81, P 3.25, L 1.95, I 2.75, Y 2.84, C 2.1, E 3.17, D 2.88, S 2.6
Y15: W 2.12, G 3.84, D 3.36, S 3.28, E 3.6, M 2.96, F 3.08, N 2.88, V 3, Q 3.32
Y8: T 3.15, I 2.82, S 3.19, H 2.64, D 3.75, E 4.03, V 3.17, Q 3.39, F 2.69
T2: M 2.52, N 2.99, D 3.24, H 2.32, L 2.15, I 2.19, R 2.41, F 2.47, Y 2.01, C 2.43, Q 2.41, S 2.74
H21: Q 2.66, D 3.55, V 2.25, I 2.12, L 2.2, S 3.05, E 3.27, W 1.75, M 2.46, C 2.56, T 2.8, Y 1.9, N 3.33, K 2.16, R 2.69
E24: K 2.29, W 2.67, L 2.14, G 2.75, M 1.84, T 2.1, H 2.23, Q 2.29, C 2.25, Y 1.89, P 2.24, S 2.07, N 2.46, R 2.18, V 2.02, I 2.1
Y17: P 3.82, E 4.23, A 4.37, G 3.37, H 2.94, S 3.24, Q 3.27, D 4.01, K 2.96, V 2.81, M 3.06, T 3.65, F 2.55
E9: I 1.87, C 1.63, K 2.13, V 2.42, D 3.04, T 1.91, P 2.51, M 2.32, L 2.12, W 1.61, N 2.52, A 2.29, Q 2.52, H 1.97
